Laboratory results: article PMC3365014 (PLoS ONE, 2012)

Biological target: T1, p53 C-terminal domain (p53CTD, residues 293–393) (UniProt P04637 293-393)
T1 construct: p53 C-terminal domain, residues 293–393; 15N-labeled for NMR; also called p53(293–393); full length p53CTD; source: E. coli (C41 for the 15N-labeled protein), purified as described [23]
Test: peptide or protein array; Celluspots peptide array, peptides immobilised; 20 µM p53CTD in 1% milk in TBS-T (50 mM Tris pH 7.5, 110 mM NaCl, 0.05% Tween 20), overnight at 4°C; detected with FL-393 anti-p53 antibody
Conditions: both partners purified

T1 sequence (P04637 293-393): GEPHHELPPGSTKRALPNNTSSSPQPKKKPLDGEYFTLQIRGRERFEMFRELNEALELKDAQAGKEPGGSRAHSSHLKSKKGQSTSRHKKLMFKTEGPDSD

- binding result: binds
B1: PKCα(271–285), peptide on the array (peptide)
peptide: ASGWYKLLNQEEGEY
notes: Protein Kinase C α isoform, residues 271–285; Immobilised on the array; source: bought: Intavis Celluspots peptide array
